Literature values, collected in patent US10744082B2, “Compositions for treatment of xerostomia and for tooth treatment” (3 IN 1 DENTAL PLLC, priority 2013, dated 2020).

Test system: lean meat
Settings: usual grade of papain

B1: Papain (protein, UniProt P00784 134-345, looked up)
Papain: IPEYVDWRQKGAVTPVKNQGSCGSCWAFSAVVTIEGIIKIRTGNLNEYSEQELLDCDRRSYGCNGGYPWSALQLVAQYGIHYRNTYPYEGVQRYCRSREKGPYAAKTDGVRQVQPYNEGALLYSIANQPVSVVLEAAGKDFQLYRGGIFVGPCGNKVDHAVAAVGYGPNYILIKNSWGTGWGENGYIRIKRGTGNSYGVCGLYTSSFYPVKN
notes: Protease enzyme; white or grayish-white, slightly hygroscopic powder, designated USP
potency: weight of lean meat digested: ~35 times its weight
